Test results from US20050209141A1.

T1: human angiotensinogen (Sigma), P01019
T1 chain: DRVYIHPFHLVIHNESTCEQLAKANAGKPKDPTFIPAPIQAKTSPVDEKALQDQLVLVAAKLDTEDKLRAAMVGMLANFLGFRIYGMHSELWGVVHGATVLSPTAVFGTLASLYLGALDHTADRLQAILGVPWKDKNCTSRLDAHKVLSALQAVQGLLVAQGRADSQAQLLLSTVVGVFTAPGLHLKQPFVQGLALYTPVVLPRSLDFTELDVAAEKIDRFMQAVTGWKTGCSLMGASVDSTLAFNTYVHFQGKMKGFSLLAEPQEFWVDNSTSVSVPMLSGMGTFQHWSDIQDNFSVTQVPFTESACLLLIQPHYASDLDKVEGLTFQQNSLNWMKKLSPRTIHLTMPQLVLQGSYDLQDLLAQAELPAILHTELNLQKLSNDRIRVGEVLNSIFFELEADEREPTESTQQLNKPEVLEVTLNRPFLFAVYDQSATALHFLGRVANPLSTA


Tests used:
[1] = molecular target: angiotensin II receptor (AT1AR) transfected into human neuroblastoma SH-SY5Y cells (SH-SY5Y-AT1A cells); assay: cell-based or functional assay
[2] = molecular target: guinea pig angiotensin type 1 receptor on cardiac sympathetic nerve endings (guinea pig); assay: cell-based or functional assay
[3] = molecular target: T1, human angiotensinogen (Sigma), P01019

| Molecule | release of [3H]MPP+ from SH-SY5Y-AT1A cells [1] | norepinephrine release from guinea-pig cardiac sympathetic nerve endings [2] | ANG I activity of HMC-1 releasate with 240 nM angiotensinogen, with or without BILA2157 [3] | ANG I formed (renin activity) by RIA [3] | ANG I formed (renin activity) by RIA, with or without BILA2157 (100 nM) [3] |
| --- | --- | --- | --- | --- | --- |
| angiotensin II (peptide) | 20% | 27% |  |  |  |
| human renin of the human mast cell line HMC-1 (cells, lysate and releasate) (protein) LTLGNTTSSVILTNYMDTQYYGEIGIGTPPQTFKVVFDTGSSNVWVPSSKCSRLYTACVYHKLFDASDSSSYKHNGTELTLRYSTGTVSGFLSQDIITVGGITVTQMFGEVTEMPALPFMLAEFDGVVGMGFIEQAIGRVTPIFDNIISQGVLKEDVFSFYYNRDSENSQSLGGQIVLGGSDPQHYEGNFHYINLIKTGVWQIQMKGVSVGSSTLLCEDGCLALVDTGASYISGSTSSIEKLMEALGAKKRLFDYVVKCNEGPTLPDISFHLGGKEYTLTSADYVFQESYSSKKLCTLAIHAMDIPPPTGPTWALGATFIRKFYTEFDRRNNRIGFALAR |  |  | about 70% of the ANG I activity measured in the presence of 240 nM angiotensinogen, is due to BILA2157-sensitive renin | The amount of ANG I formed increased with angiotensinogen concentration. | ˜70% of the total ANG I formed originates from renin |
